Consider three proteins from paper PMC5389812, “Rv3634c from Mycobacterium tuberculosis H37Rv encodes an enzyme with UDP-Gal/Glc and UDP-GalNAc 4-epimerase activities” (PLoS ONE, 2017).

Residue numbers refer to the chain shown, from its start. Names and notes keep the numbering of the source.

The chains are these.
B1: His-tagged Rv3634c (H3634) S121A mutant (enzyme)
chain: MRALVTGAAGFIGSTLVDRLLADGHSVVGLDNFATGRATNLEHLADNSAHVFVEADIVTADLHAILEQHRPEVVFHLAAQIDVRRSVADPQFDAAVNVIGTVRLAEAARQTGVRKIVHTSAGGSIYGTPPEYPTPETAPTDPASPYAAGKVAGEIYLNTFRHLYGLDCSHIAPANVYGPRQDPHGEAGVVAIFAQALLSGKPTRVFGDGTNTRDYVFVDDVVDAFVRVSADVGGGLRFNIGTGKETSDRQLHSAVAAAVGGPDDPEFHPPRLGDLKRSCLDIGLAERVLGWRPQIELADGVRRTVEYFRHKHTD
notes: not shown: His6, N-terminal, kept
B2: His-tagged Rv3634c (H3634) K150R mutant (enzyme)
chain: B1 chain with A121S, K150R
notes: as for B1
B3: His-tagged Rv3634c (H3634) Y146F mutant (enzyme)
chain: B1 chain with A121S, Y146F
notes: as for B1

This series concerns the molecule itself. In words: SEC; Superdex 200 16/600 GL column, FPLC buffer (20 mM Tris pH 8.0, 100 mM NaCl); calibrated with conalbumin, ovalbumin, carbonic anhydrase, ribonuclease A and aprotinin; molecular weight from Kav.
In general, stoichiometry N refers to the number of molecules, sites or subunits per partner or assembly. Take B1: the “stoichiometry N” value amounted to 2.

B2: the “stoichiometry N” value turned out to be 2.

Turning to B3, the “stoichiometry N” value turned out to be 2.
